In article PMC5505960, “A novel STK1-targeted small-molecule as an “antibiotic resistance breaker” against multidrug-resistant Staphylococcus aureus” (Scientific Reports, 2017):

Columns and labels:
[1] = test system: WalR-P (STKK1-phosphorylated WalR) (Staphylococcus aureus (ORF numbering of N315; source strain of the clone not stated)); assay: EMSA; conditions: scale: fold bound/free ratio vs unphosphorylated WalR
[2] = target: T1, STK1 (STKK1, soluble kinase domain) (Staphylococcus aureus, UniProt A0ABF7PGK0); assay: inhibition of autophosphorylation of purified STKK1 (gamma-32P-ATP); also elution of STK1 from ATP column; type: biochemical
T1 construct: gene SA1063; His-tag-STKK1, kinase domain with part of the adjacent juxta-membrane domain (1-280 aa)
T1 sequence (A0ABF7PGK0 entry or part of it): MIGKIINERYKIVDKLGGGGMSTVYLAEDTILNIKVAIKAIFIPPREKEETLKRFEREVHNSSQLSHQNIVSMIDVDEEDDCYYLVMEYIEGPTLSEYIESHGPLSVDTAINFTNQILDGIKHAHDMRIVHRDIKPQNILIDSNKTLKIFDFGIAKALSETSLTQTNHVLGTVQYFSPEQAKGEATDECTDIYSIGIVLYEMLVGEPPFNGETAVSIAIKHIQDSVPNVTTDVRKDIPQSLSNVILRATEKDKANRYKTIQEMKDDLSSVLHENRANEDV

[3] = target: T1, STK1 (STKK1, soluble kinase domain); assay: inhibition of autophosphorylation of purified STKK1 (gamma-32P-ATP); also elution of purified STKK1 from ATP column; type: biochemical

Compound: PSA0710 promoter probe (lytE)
- binding signal [1]: > 2

Compound: Cc1ccc(NC(=O)c2sc(=S)n3c2[nH]c(=O)c2ccccc23)c(C)c1 [Inh2, N-(2,4-Dimethylphenyl)-5-oxo-1-thioxo-4,5-dihydro[1,3]thiazolo[3,4-a] quinazoline-3-carboxamide]
- IC50 [2]: 24.5 µM

Compound: COC(=O)c1ccc2c(=O)[nH]c3c(C(=O)Nc4ccccc4)sc(=S)n3c2c1 [Inh2-B1, Methyl 5-oxo-3-(phenylcarbamoyl)-1-thioxo-4,5dihydro[1,3]thiazolo[3,4-a]quinazoline-8-carboxylate]
- IC50 [3]: 49 µM

Compound: PSA2097 promoter probe (ssaA)
- binding signal [1]: > 2
